Assay results from patent US20170189529A1 (CONTRAFECT, published 2017).
Read-outs that look alike come from different tables or passages of the source.

B1: TRL856 (antibody, V domains shown)
VH: QVQLVESGGGLVQPGGSLRLSCAASGFTFSDYWMVWVRQAPGKGLVWVSRISSDGSTTSYADSVKGPFTISRDNAKNTLYLQMNSLRAEDTAVYYCARVATPYYYESGFDYWGQGALVTVSS
VL: DIVLTQSPSVSVAPGQTARITCGGNDIGSKSVHWYQQKPGQAPVLVVFDDRDRPSGIPERFSGSNSGNTATLTISRVEAGDEADYYCQVWDITSDLVVFGGGTKLTVVG
B2: TRL847 (antibody, V domains shown)
VH: QVQLVESGGGLVQPGGSLRLSCVASGFTFSRFSMNWVRQAPGMGLEWVSYISDTGRTIYYADSVKGRFTISRDNDKNTLYLQMKSLRDEDSAFYYCARDPDTPFVRAFDSWGQGVLVTVSS
VL: DIVMTQSPSFLSASVGDRVTITCRTSQVISSYLAWYQQRPGKAPKLLIYAASTLQSGVPSRFSGSGSGTRFSLTISNLQPEDFATYFCQQLTTYPPITFGQGTRLEIKR
B3: TRL812 (antibody, V domains shown)
VH: QVQLVQSGGGVVQPGRSLRLSCAASGFNFSSYGMHWVRQAPGKGLEWLSVIWSGGSNKYYADSVKGRFTISRDDSKNTVYLQMNSLRDEDTAVYYCARAHTALTRFRWLDPWGQGILVTVSS
VL: DIVMTQSPATLSVSPGEGATLSCRASQGIGSNLAWYQHKPGQAPRLLIYAASTRATGVPARFSGSGSGTEFTLTISSLQSEDLAVYFCQQYNTWPLTFGGGTKVEIIR
B4: TRL848 (antibody, V domains shown)
VH: QVQLLESGGDVVQPGTSLRLSCAASGFSLWTSGMHWVRQAPGKGLEWVAVMSYDETKKYYADSVRGRFSISRDNSRNTLYLQMNSLRVEDTAVYFCAKPRLDYLDYFHAADSWGQGTLVSVSS
VL: DIVLTQPPSVSVAPGQTATITCGGNYIGSKSVNWYQQRPGHAPVLVVYDDSDRPSGIPDRFSGSNSRSTATTATLTISRVEAGDEADYYCQVWETSEDLWVFGGGTKLTVLG
B5: TRL842 (antibody, V domains shown)
VH: QVQLLESGGDVVQPGTSLRLSCAASGFSLWTSGMHWVRQAPGKGLEWVAVMSYDETKKYYADSVRGRFSISRDNSRNTLYLQMNSLRVEDTAVYFCAKPRLDYLDYFHAADSWGQGTLVSVSS
VL: DIVLTQPPSVSVAPGQTATITCGGNYIGSKSVNWYQQRPGHAPVLVVYDDSDRPSGIPDRFSGSNSRSTATTATLTISRVEAGDEADYYCQVWETSEDLWVFGGGTKLTVLG
B6: TRL841 (antibody, V domains shown)
VH: QVQLVESGGGVVQPGRSLRLSCAASGFTFSSYGIYWVRQAPGKGLEWVAFISYDEINKFYADSVKGRFTISRDNSKNTVFLQMNSLRDEDTAVYYCAKPLRGSYRYFDLWGRGTVVTVSS
VL: DIVMTQPPATLSVSPGERATLSCGASQGLGSNLAWYQQKPGQAPRLLIYAASTRATGITARFSGSGSGTEFTLTINSLQSEDFALYYCQQYTYWPLTFGGGTKVEIKR
B7: TRL849 (antibody, V domains shown)
VH: QVQLVESGPGLVKPSQTLSLTCTVSGGSISNGGYHWSWIRQHPGKGLEWIGNIYYRGSTFYDPSLKSRVTISVDTSKSQFSLKLTSVTAADTAVYYCARMPLANYDLLTGLYIGAFDLWGQGTMVTVSS
VL: DIVLTQSPATLSVSPGERATLSCRASQSVNRNLAWFQQIPGQAPRLLIFDASTRAADIPARFSGGGSGAEFTLTVSSLQPEDFAVYYCQQYDKWPPGFGQGTKVEIKR
B8: TRL813 (antibody, V domains shown)
VH: QVQLVESGGGLVQPGGSLRLSCAASGFIFGDFAIHWVRQASGKGLEWVARIRSGLNRFETAYAASVEGRLTISRDDSKSMAYLQMNNVKAEDTAVYLCTYLVGAVGFQHWGQGTLVTVSS
VL: DIVMTQSPSTLSASVGDRVTITCRASQTIYRWLAWYQQKPGKAPKVLIYKASTLESGVPSRFSGSGSGTEFTLAISSLQPDDFATYYCQQYNSFPYRFGQGTKVEIKR
B9: TRL809 (antibody, V domains shown)
VH: QVQLLESGGGVVRPGRSLRLACAGSGFTFSAYAMHWVRQAPGKGLEWVAHTSYDGRDSYYVDSVKGRFTISRDDSKNTLYLQMNSLRPEDTAVYYCAKVGPYTGYDDYNYYGMDVWGHGTTVTVSS
VL: DIVLTQSPVSLAVSLGESATVNCKSSQSVLSNSKNLNYLAWYQHKPGQPPKLLIYWASTRESGVPDRFSGSGSGTDFTLTISSLQAEDVAVYYCQQHYSIPLTFGPGTKVDIKR
B10: TRL845 (antibody, V domains shown)
VH: QVQLVQSGGDLVQPGGSLRLSCAASGFTFSRYSMNWVRQAPGMGLEWVAYISDTSRTIYYADSVKGRFTISRDNAKNSLYLQMKSLRDEDTAVYYCARDPDTPFVRAFDSWGQGTLVTVSS
VL: DIVLTQSPSFLSASVGDRVTITCRASQLISSYFAWYQQKPGKPPKLLIYAASTLQSGVPSRFSGSGSGTQFSLTISSLQPEDFATYYCQQLNSYPPITFGQGTRLEIKR
B11: TRL832 (antibody, V domains shown)
VH: QVQLVESGPGLMKPSETLSLTCTVSGGSVSNYYWSWIRQPPGKGLEWIGYVFYSGSSNYNPSLNNPSLKSRVTISIDTSNNQFSLKLSSVTAADTAVYYCARGRVNSGYDWGPNFDSWGQGALVTVSS
VL: DIVLTQAPSVSVSPGQTASITCSGDRLGEKFASWYQQKPGQSPVLVIYEDSKRPSGIPDRFSGSNSGNTATLTISGTQIMDEGDFFCQAWDSSTVVFGGGTKLTVLG
B12: TRL053 (antibody, V domains shown)
VH: QVQLVQSGAEVRKPGSSVKVSCKVSGGIIRKYAINWVRQAPGQGLEWMGGIIAIFNTANYAQKFQGRVTITADESTSTVYMELSSLRSEDTALYYCARGMNYYSDYFDYWGQGSLVTVSP
VL: EIVLTQSPGTLSLSPGERATLSCRASQSVRSNNLAWYQHKPGQAPRLLIFGASSRATGIPDRFSGSGSGTDFTLTISRLEPEDFAVYYCQQYGSSPALTFGGGTKVEIKR

Tests used:
[1] = target: T1, hemagglutinin (HA) of influenza B virus B/Malaysia (Victoria lineage) (influenza B virus B/Malaysia/04 …); test: recombinant HA ELISA (AttoPhos fluorescence, mean of triplicates)
[2] = target: recombinant HA of influenza B virus B/Brisbane/08 (Victoria clade) (influenza B virus B/Brisbane/08 …); test: as above
[3] = target: T2, hemagglutinin (HA) of influenza B virus B/Florida (Yamagata lineage) (influenza B virus B/Florida/06 …); test: as above
[4] = target: recombinant HA of influenza B virus B/Mass/12 (Yamagata clade) (influenza B virus B/Mass/12 (Yamagata …)); test: as above
[5] = target: recombinant HA of influenza B virus B/Wisconsin/10 (Yamagata clade) (influenza B virus B/Wisconsin/10 …); test: as above
[6] = target: T1, hemagglutinin (HA) of influenza B virus …; test: ForteBio Octet; antigen on the sensor, varying antibody concentrations
[7] = target: T2, hemagglutinin (HA) of influenza B virus …; test: as above
[8] = target: T2, hemagglutinin (HA) of influenza B virus …
[9] = target: hemagglutinin of influenza A virus A/mallard/MN/AI08-3881/08 (H2), on virus (influenza A virus H2 …); test: cell-based or functional assay
[10] = target: hemagglutinin of influenza A virus A/CA/04/09 (H1), on virus (influenza A virus H1 A/CA/04/09); test: cell-based or functional assay
[11] = target: hemagglutinin of influenza A virus A/Mallard/MN/182753/98 (H9), on virus (influenza A virus H9 …); test: cell-based or functional assay
[12] = target: H2 Japan/305/1957 HA monomer (influenza A virus H2 Japan/305/1957, UniProt P03451 16-525); test: kinetic binding to HA monomer (instrument not stated)

Row | Binder | fold reactivity over background [1] | fold reactivity over background [2] | fold reactivity over background [3] | fold reactivity over background [4] | fold reactivity over background [5] | Kd [6] | Kd [7] | Kd [8] | IC50 (ug/ml), MDCK monolayer microneutralization assay [9] | IC50 (ug/ml), MDCK monolayer microneutralization assay [10] | IC50 (ug/ml), MDCK monolayer microneutralization assay [11] | Kd [12] | koff [12] | kon [12]
1 | B1 | 25.6 fold over background | 24.1 fold over background | 25.6 fold over background | 25.6 fold over background | 25.6 fold over background |  |  |  |  |  |  |  |  | 
2 | B2 | 25.6 fold over background | 25.6 fold over background | 25.6 fold over background | 25.6 fold over background | 25.6 fold over background | < 1 nM | 0.7 nM |  |  |  |  |  |  | 
3 | B3 | 25.6 fold over background | 25.6 fold over background | 25.6 fold over background | 25.6 fold over background | 25.6 fold over background |  |  |  |  |  |  |  |  | 
4 | B4 | 25.6 fold over background | 25.6 fold over background | 25.6 fold over background | 25.6 fold over background | 25.6 fold over background | < 1 nM | 3.9 nM | 1.7 nM |  |  |  |  |  | 
5 | B5 | 25.6 fold over background | 25.6 fold over background | 25.6 fold over background | 25.6 fold over background | 25.6 fold over background | < 1 nM | 2.5 nM |  |  |  |  |  |  | 
6 | B6 | 25.6 fold over background | 25.6 fold over background | 25.6 fold over background | 25.6 fold over background | 25.6 fold over background |  |  |  |  |  |  |  |  | 
7 | B7 | 25.6 fold over background | 25.6 fold over background | 25.6 fold over background | 25.6 fold over background | 25.6 fold over background | < 1 nM | 0.2 nM |  |  |  |  |  |  | 
8 | B8 | 25.6 fold over background | 25.6 fold over background | 25.6 fold over background | 25.6 fold over background | 25.6 fold over background |  |  |  |  |  |  |  |  | 
9 | B9 | 25.6 fold over background | 25.6 fold over background | 25.6 fold over background | 25.6 fold over background | 25.6 fold over background | 0.2 nM | 0.18 nM |  |  |  |  |  |  | 
10 | B10 | 25.6 fold over background | 25.6 fold over background | 25.6 fold over background | 25.6 fold over background | 25.6 fold over background | < 1 nM | 5.2 nM | 0.19 nM |  |  |  |  |  | 
11 | B11 | 25.6 fold over background | 25.6 fold over background | 25.6 fold over background | 25.6 fold over background | 25.6 fold over background | 0.2 nM | 1.7 nM |  |  |  |  |  |  | 
12 | B12 | 1.6 fold over background | 1 fold over background | 1.1 fold over background | 1 fold over background | 2.8 fold over background |  |  |  | 0.3 µg/mL | 0.9 µg/mL | 0.1 µg/mL | 12.3 nM | 6.8e-05 s⁻¹ | 5500 M⁻¹ s⁻¹
